Source: the supplement of paper PMC10567573

B1: PKD2L1 (parent)
chain: YSGGGYYLDLPGSRQGSAEALRAL

Variants of: B1
Experiment: protein stability index of a GFP-peptide fusion (GPS, HEK-293T) (PSI 1-6); higher = more stable
Settings: c terminus: a fixed tail appended
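Further: lentivirally expressed fusions sorted by FACS into six bins by GFP to DsRed ratio, PSI derived from sequencing read proportions per bin multiplied by bin number.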

Protein stability index: each site, then its substitutions
S17: H 2.36; I 1.75; A 1.6; N 2.01; Q 3.08; D 1.92
Y1: R 3.13; T 3.58; N 3.58
Q15: D 1.98; Y 2.17; I 3.59; C 3.34; W 1.73; A 2.41; F 1.61
R14: P 1.37; F 1.32; L 2.71; C 1.55; M 2.08
S2: W 2.13; E 3; T 2.59; P 3.27; V 3.97; I 2.34
S13: D 1.12; N 1.38; C 2.23; H 1.58; P 1.85; Q 2.28; K 1.82
Y6: Q 2.83; E 3.37; M 2.16; V 2.24; N 2.83; W 5.5
L24: H 2.65; A 1.85; P 2.7; C 1.62; T 1.61; E 1.49; D 1.6
G12: K 1.74; R 1.59; M 2.54; Y 1.49; L 2.15; A 2.05
L8: M 3.21; S 1.37; A 2.12; I 2.77; F 2.66; W 2.72
E19: K 1.98; A 1.64; D 1.81; L 1.84; R 2.16; N 1.77
P11: Q 2.53; A 1.89; V 1.85; W 2.52; D 1.21; Y 2; C 1.82; L 2.54; H 1.44; I 1.94; K 1.91; S 1.73; T 1.86
L21: Q 1.87; K 2.26; A 1.46; I 1.75; M 3.01; C 1.41
A23: Q 2.53; S 1.86; K 1.72; H 2.09; P 2.19; Y 1.53; L 1.73; G 1.44; N 2.05; V 2.45; F 2.52
R22: T 1.82; S 2.92; M 2.61; I 3.18
Y7: C 1.93; W 1.91; S 3.21; K 2.75; A 2.17; I 1.39; Q 2.4
G4: Q 2.23; L 2.15; H 2.45; A 1.56; S 2.08; C 1.95; D 2.86; Y 1.65; V 2.22; E 1.8
D9: T 3.34; Y 4.13; E 2.01; A 4.81; W 2.87; S 1.83; H 1.95
G5: H 2.28; M 2.68; W 3.35; V 2.1; L 1.6; P 2.41
G16: T 1.84; H 2.66; M 1.02; R 1.98; E 1.92; C 1.86
L10: M 1.66; E 2.69; R 2.97; N 1.6; A 2.27; V 2.17
G3: P 2.31; K 2.37; C 2.41; E 2.06; F 1.45; N 1.52; T 1.93; I 2.27; Q 1.52
A20: K 1.74; H 1.25; Y 1.76; C 3.77; D 1.86; W 2.36; I 1.37; R 1.29; P 2.62
A18: G 1.81; L 2.12; K 2.75; M 1.88; I 1.55; V 1.49; S 1.5; E 1.71
